From US8597902B2, “Peptide protection against ultraviolet light toxicity” (Helix Biomedix, Inc., priority 2009, dated 2013)
Ends that are not written are not given here.

Legend:
[1] = biological target: T1, Activated human Chk2 enzyme (Homo sapiens, UniProt O96017); assay: K-LISA Checkpoint Activity Kit: Chk2 phosphorylation of biotinylated cdc25c surrogate substrate peptide; assay type: biochemical; settings: peptide 50 μg/mL final concentration; for inhibition of the activity of Chk2 against the substrate peptide (in words): carboxy-terminal amidated peptides, absorbance 450/540 nm
T1 construct: purchased Sigma (St. Louis, MO)
T1 sequence (O96017 whole entry): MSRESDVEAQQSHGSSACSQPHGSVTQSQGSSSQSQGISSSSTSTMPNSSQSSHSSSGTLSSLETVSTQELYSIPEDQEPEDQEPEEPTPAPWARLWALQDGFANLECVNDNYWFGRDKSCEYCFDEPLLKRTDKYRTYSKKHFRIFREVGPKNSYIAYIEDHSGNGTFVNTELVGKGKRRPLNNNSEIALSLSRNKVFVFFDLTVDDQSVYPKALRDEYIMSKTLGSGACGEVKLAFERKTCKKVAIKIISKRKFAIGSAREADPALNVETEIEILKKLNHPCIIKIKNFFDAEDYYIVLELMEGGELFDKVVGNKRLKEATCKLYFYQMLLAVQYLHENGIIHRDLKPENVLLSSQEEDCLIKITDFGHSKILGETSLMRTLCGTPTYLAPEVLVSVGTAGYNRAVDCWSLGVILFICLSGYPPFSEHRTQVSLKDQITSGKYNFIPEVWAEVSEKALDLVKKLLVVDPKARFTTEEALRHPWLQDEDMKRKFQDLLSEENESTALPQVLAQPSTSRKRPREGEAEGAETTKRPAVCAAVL
Method: Activated human Chk2enzyme for these tests was obtained from Sigma (St. Louis, MO).
This incubation allowed for substrate phosphorylation by Chk2 and substrate capture in a single step. Following incubation, the phosphorylated substrate was detected using an anti-phosphoserine primary antibody, a horseradish peroxidase (HRP)-conjugated secondary antibody and TMB (tetramethylbenzidine) substrate for color development (the primary and secondary antibodies, and TMB, were provided in the K-LISA™ Checkpoint Activity Kit). Assay sensitivity was increased by the addition of the Stop solution provided in the kit. Relative Chk2 activity was determined by reading the absorbance of each well at dual wavelengths 450/540 nm.

[2] = biological target: Activated human checkpoint kinase 2 (Chk2) (human)

Row | Molecule | inhibition of the activity of Chk2 against the substrate peptide (in words) [1] | reduction of Chk2 phosphorylation activity ([1]; versus control Chk2 activity) | Reduction of Chk2 phosphorylation activity (K-LISA, absorbance 450/540 nm) [2] [%]
1 | FHSIYQSH (FHSIYQSH-NH2; listed as Homo sapiens) [SEQ ID NO:6] | inhibited | – | –
2 | HSLYQSH (HSLYQSH-NH2; listed as Homo sapiens) [SEQ ID NO:8] | inhibited | – | –
3 | SLYQS (not fully specified (C-terminus); listed as Homo sapiens) [SEQ ID NO:10] | inhibited | about 48% | –
4 | YHSIYQSHI (YHSIYQSHI-NH2; listed as Homo Sapiens) [SEQ ID NO:3] | inhibited | – | –
5 | YHSLYESK (YHSLYESK-NH2; listed as Homo sapiens) [SEQ ID NO:5] | inhibited | – | –
6 | YHSLYQSHL (YHSLYQSHL-NH2; listed as Homo sapiens) [SEQ ID NO:2] | inhibited | – | –
7 | SLYQS-NH2 [SEQ ID NO:10 peptide (SLYQS; Ser-Leu-Tyr-Gln-Ser), carboxy-terminal amidated] | – | – | 48
